Measured values as given in PMC9284671 (Structure (London, England : 1993), 2022).

Columns and labels:
Experiment in all cases: ELISA
[1] = biological target: SARS-CoV S2P (pre-fusion-stabilized soluble spike) (SARS-CoV Urbani, UniProt P59594, stabilised)
[2] = biological target: WIV1 S2P (pre-fusion-stabilized soluble spike) (Bat SARS-like coronavirus WIV1, UniProt U5WI05, stabilised)
[3] = biological target: SHC014 S2P (pre-fusion-stabilized soluble spike) (Bat SARS-like coronavirus RsSHC014, UniProt U5WLK5, stabilised)
[4] = biological target: RaTG13 S2P (pre-fusion-stabilized soluble spike) (Bat coronavirus RaTG13 (GenBank …, UniProt A0ABF7PLN6, stabilised))
[5] = biological target: MERS-CoV S2P (pre-fusion-stabilized soluble spike) (MERS-CoV EMC/2012 (GenBank AFS88936), UniProt K0BRG7, stabilised)

Measured: binding result

B1: WS6 (monoclonal antibody, IgG) (antibody, V domains shown)
VH: EVQFQQSGTVLARPGASVKMSCKASGYTFTNYWIHWVKQRPGQGLEYIGGTYPGNGDTTYNQKFKGKAKVTAVTPTSTAYMDLSSLTNEDSAVYYCTRTGSYFDYWGQGTTLTVSS
VL: QIVLTQSPAIMSASPGEKVTISCSATSSVSYIYWYQQRPGSSPKPWIYRTSNLASGVPVRFSGSGSGTSYSLTISNMEAEDAATYYCQQYQSYPPTFGAGTKLELK
binds: all assays above
